From article doi:10.1101/685867 (bioRxiv, 2020)

Target: T1, S0_2.126 (synthetic construct (de novo design))
T1 chain: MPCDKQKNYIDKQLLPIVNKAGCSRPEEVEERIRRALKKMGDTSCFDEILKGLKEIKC
Assay: SPR

Kd: ~0.05 nM
B1: D25 IgG (antibody, V domains shown)
VH: QVQLVQSGAEVKKPGSSVMVSCQASGGPLRNYIINWLRQAPGQGPEWMGGIIPVLGTVHYAPKFQGRVTITADESTDTAYIHLISLRSEDTAMYYCATETALVVSTTYLPHYFDNWGQGTLVTVSS
VL: DIQMTQSPSSLSAAVGDRVTITCQASQDIVNYLNWYQQKPGKAPKLLIYVASNLETGVPSRFSGSGSGTDFSLTISSLQPEDVATYYCQQYDNLPLTFGGGTKVEIK
